Experimental data taken from article PMC5559459, “Disruption of the structural and functional features of surfactant protein A by acrolein in cigarette smoke” (Scientific Reports, 2017).

target: T1, recombinant human TLR4 (hTLR4) (human, UniProt O00206 24-631); assay: ELISA; 500 ng hTLR4 coated on 96-well plates; 5 μg SP-A in 10 mM HEPES pH 7.4, 0.15 M NaCl, 5 mM CaCl2, 2% fatty acid-free BSA, 37 °C, 5 h; detected with anti-human SP-A polyclonal antibody and HRP anti-rabbit IgG; background (vehicle) subtracted; conditions: both partners purified
T1 construct: Toll-like receptor 4, human, recombinant; No catalogue number is printed; the bought protein is probably a soluble extracellular construct with a tag (surmise); source: bought: Sino Biological Inc
T1 sequence (O00206 24-631): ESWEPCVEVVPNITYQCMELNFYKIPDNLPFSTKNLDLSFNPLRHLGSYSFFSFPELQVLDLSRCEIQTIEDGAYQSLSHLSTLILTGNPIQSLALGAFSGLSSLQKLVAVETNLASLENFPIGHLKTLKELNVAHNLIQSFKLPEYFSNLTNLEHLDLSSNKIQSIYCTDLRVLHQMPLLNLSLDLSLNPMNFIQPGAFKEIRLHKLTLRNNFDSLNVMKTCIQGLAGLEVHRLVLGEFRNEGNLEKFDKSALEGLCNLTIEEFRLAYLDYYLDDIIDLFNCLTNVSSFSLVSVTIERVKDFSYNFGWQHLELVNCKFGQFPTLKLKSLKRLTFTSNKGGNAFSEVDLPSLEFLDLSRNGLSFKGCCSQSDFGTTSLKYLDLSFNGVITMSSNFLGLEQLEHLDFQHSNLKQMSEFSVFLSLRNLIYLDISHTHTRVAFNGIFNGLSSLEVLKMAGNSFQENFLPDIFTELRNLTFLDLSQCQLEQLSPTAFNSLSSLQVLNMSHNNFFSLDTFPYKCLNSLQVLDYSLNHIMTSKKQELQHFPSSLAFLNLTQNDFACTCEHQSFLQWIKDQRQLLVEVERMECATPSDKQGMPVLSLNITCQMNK

Row | Binder | percent decrease of binding against unmodified hSP-A [%]
1 | acrolein (10 µM)-modified recombinant human SP-A (natural protein, acrolein adducts (acrolein-lysine adducts, aldehyde adducts, modified free thiols); the sites were not mapped at this 2:1 ratio, pulmonary surfactant protein A, human SP-A1 cDNA expressed and secreted by CHO-K1 cells; Chemically modified form of m1; heterogeneous adducts; also called acrolein (10 μM)-modified SP-A; hSP-A pre-incubated with 10 µM acrolein; source: CHO-K1 cells, purified (mannose-Sepharose); 5 µM hSP-A incubated with 10 µM acrolein in 5 mM Tris-HCl pH 7.4 at 37 °C for 4 h, then dialyzed) not shown | 77.1
2 | acrolein (100 µM)-modified recombinant human SP-A (natural protein, acrolein adducts; at a 20:1 molar ratio of acrolein to SP-A six modified residues were identified: His39, His116, Cys155, Lys180, Lys221, Cys224, pulmonary surfactant protein A, human SP-A1 cDNA expressed and secreted by CHO-K1 cells; Chemically modified form of m1; the sites were mapped by MS on a sample of 25 µM hSP-A with 500 µM acrolein (same 20:1 ratio); also called acrolein (100 μM)-modified SP-A; hSP-A pre-incubated with 100 µM acrolein; source: CHO-K1 cells, purified (mannose-Sepharose); 5 µM hSP-A incubated with 100 µM acrolein in …) not shown | 72.6
3 | cigarette smoke extract (CSE)-modified recombinant human SP-A (natural protein, adducts from cigarette smoke extract (acrolein-lysine adducts, aldehyde adducts, modified free thiols); sites not mapped, pulmonary surfactant protein A, human SP-A1 cDNA expressed and secreted by CHO-K1 cells; Chemically modified form of m1; heterogeneous adducts; also called CSE-modified SP-A; hSP-A pre-incubated with CSE; source: CHO-K1 cells, purified (mannose-Sepharose); 5 µM hSP-A incubated with 10% CSE in 5 mM Tris-HCl pH 7.4 at 37 °C for 4 h, then dialyzed) not shown | 71.9
